Publication PMC5634496 (Nature Communications, 2017)

T1: GST-Ubc13 (UniProt P61088 1-152)
T1 construct: Ubc13 (UBE2N), cDNA in pGEX-4T-1; The end of GST is read from the printed name GST-Ubc13; also called UBE2N; source: E. coli BL21(DE3/pLys), purified (glutathione sepharose beads); not shown: GST, N-terminal, kept
T1 sequence (looked up): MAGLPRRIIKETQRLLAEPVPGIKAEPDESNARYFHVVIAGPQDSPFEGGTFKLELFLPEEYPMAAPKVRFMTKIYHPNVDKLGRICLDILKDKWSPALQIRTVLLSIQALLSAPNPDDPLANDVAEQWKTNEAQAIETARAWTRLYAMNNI


Legend:
[1] = target: the molecule itself; test: native gel or EMSA; proteins purified on anti-Flag M2 magnetic beads, eluted, resolved on 10% native gel, immunoblot with Flag antibody
GST-Ubc13 = target: T1, GST-Ubc13; test: pull-down; purified GST-Ubc13 (or GST) mixed with purified TRAF6 fragments and glutathione sepharose beads in lysis buffer A (20 mM Tris-HCl pH 7.4, 150 mM NaCl, 0.5% NP-40, 10% glycerol), 4 °C, 60 min; immunoblot; conditions: both partners purified

binding result (GST-Ubc13)	Binder	binding result [1]
–	TRAF6 mutant M4 (V315A, R316A, H319A), Flag-tagged (natural protein, mouse, UniProt P70196-1 1-530, looked up, TRAF6, mouse, mutant M4 in the CC domain; they may differ (MBP fusion, T6RZC background); also called TRAF6-M4; source: co-IP: Flag-tagged with Myc-tagged TRAF6 WT) MSLLNCENSCGSSQSSSDCCAAMAASCSAAVKDDSVSGSASTGNLSSSFMEEIQGYDVEFDPPLESKYECPICLMALREAVQTPCGHRFCKACIIKSIRDAGHKCPVDNEILLENQLFPDNFAKREILSLTVKCPNKGCLQKMELRHLEDHQVHCEFALVNCPQCQRPFQKCQVNTHIIEDCPRRQVSCVNCAVSMAYEEKEIHDQSCPLANIICEYCGTILIREQMPNHYDLDCPTAPIPCTFSVFGCHEKMQRNHLARHLQENTQLHMRLLAQAVHNVNLALRPCDAASPSRGCRPEDPNYEETIKQLESRLAAQDAQIRELTAKMETQSMYVGELKRTIRTLEDKVAEMEAQQCNGIYIWKIGNFGMHLKSQEEERPVVIHSPGFYTGRPGYKLCMRLHLQLPTAQRCANYISLFVHTMQGEYDSHLPWPFQGTIRLTILDQSEALIRQNHEEVMDAKPELLAFQRPTIPRNPKGFGYVTFMHLEALRQGTFIKDDTLLVRCEVSTRFDMGGLRKEGFQPRSTDAGV	binds
binds	CC-Flag (TRAF6 coiled-coil domain) (domain or fragment, mouse, UniProt P70196-1 296-400, looked up, TRAF6 CC domain, mouse; the limits 296-400 aa are printed in the methods for the CC domain cloned with an MBP tag for E. coli; The end of Flag is read from the printed name CC-Flag; also called CC domain; CC WT; not shown: Flag, C-terminal, kept) CRPEDPNYEETIKQLESRLVRQDHQIRELTAKMETQSMYVGELKRTIRTLEDKVAEMEAQQCNGIYIWKIGNFGMHLKSQEEERPVVIHSPGFYTGRPGYKLCMR	–
–	TRAF6 mutant M5 (deletion of amino acids 313-319), Flag-tagged (natural protein, mouse, UniProt P70196-1 1-530, looked up, TRAF6, mouse, mutant M5: one complete heptad unit of the CC domain deleted; they may differ; also called TRAF6-M5; source: co-IP: Flag-tagged with Myc-tagged TRAF6 WT) MSLLNCENSCGSSQSSSDCCAAMAASCSAAVKDDSVSGSASTGNLSSSFMEEIQGYDVEFDPPLESKYECPICLMALREAVQTPCGHRFCKACIIKSIRDAGHKCPVDNEILLENQLFPDNFAKREILSLTVKCPNKGCLQKMELRHLEDHQVHCEFALVNCPQCQRPFQKCQVNTHIIEDCPRRQVSCVNCAVSMAYEEKEIHDQSCPLANIICEYCGTILIREQMPNHYDLDCPTAPIPCTFSVFGCHEKMQRNHLARHLQENTQLHMRLLAQAVHNVNLALRPCDAASPSRGCRPEDPNYEETIKQLESQIRELTAKMETQSMYVGELKRTIRTLEDKVAEMEAQQCNGIYIWKIGNFGMHLKSQEEERPVVIHSPGFYTGRPGYKLCMRLHLQLPTAQRCANYISLFVHTMQGEYDSHLPWPFQGTIRLTILDQSEALIRQNHEEVMDAKPELLAFQRPTIPRNPKGFGYVTFMHLEALRQGTFIKDDTLLVRCEVSTRFDMGGLRKEGFQPRSTDAGV	binds
